This passage reports stoichiometry N results from article PMC5093063.

Test in all cases: SEC
In assay [1] the target is Chimeric IN F-F-H (NTD and CCD of FIV, CTD of HIV-1) (FIV (Petaluma) | HIV-1) (UniProt P12497).
The target of assay [2] is Chimeric IN F-H-F (NTD and CTD of FIV, CCD of HIV-1) (FIV (Petaluma) | HIV-1) (UniProt P12497).
Assay [3] concerns the target Chimeric IN F-H-H (NTD of FIV, CCD and CTD of HIV-1) (FIV (Petaluma) | HIV-1) (UniProt P12497).
Assay [4] concerns the target Chimeric IN H-F-F (NTD of HIV-1, CCD and CTD of FIV) (HIV-1 | FIV (Petaluma)) (UniProt P12497).

As for “Chimeric IN F-F-H (NTD and CCD of FIV, CTD of HIV-1) (from UniProt P12497 211-289) (enzyme)”, the stoichiometry N in assay [1] was 2. Substance “Chimeric IN F-H-F (NTD and CTD of FIV, CCD of HIV-1) (from UniProt P12497 53-210) (enzyme)” showed a stoichiometry N in assay [2] of 2.

In turn, “Chimeric IN F-H-H (NTD of FIV, CCD and CTD of HIV-1) (from UniProt P12497) (enzyme)” had a stoichiometry N in assay [3] of 2.

“Chimeric IN H-F-F (NTD of HIV-1, CCD and CTD of FIV) (from UniProt P12497 2-52) (enzyme)” displayed a stoichiometry N in assay [4] of 2.
